# B1: Hammerhead Ribozyme (parent)
# chain: ACCGGAUGUGCUUUCCGGUCUGAUGAGUCCGUGAGGACGAAACAG
# Variants of: B1
# Assay: self-cleavage, relative activity (ratio to wild type); higher = more cleavage; co-transcriptional
row,Variant,self-cleavage
1,ACCGGAUGUUCUUUCGGGUCUGAUGAGUCCGUGAGGACGAAACAG,1.01
2,ACCGGAUCUGCAUUCCGGUCUGAUGAGUCCGUGAGGACGAAACAG,1.01
3,ACCGGAUGUGCUUUCCGGUCUUAUGAGUCCGUGAGGACGAAAGAG,0.348
4,ACCGGAUGUGCUUUUCGGUCUGAUGAGUCCGUCAGGACGAAACAG,0.847
5,ACCGGAUGUGCUUUCCCGUCUGAUGAUUCCGUGAGGACGAAACAG,0.349
6,ACCGUAUAUGCUUUCCGGUCUGAUGAGUCCGUGAGGACGAAACAG,0.748
7,ACCGGAUGUGCUUUCCGGUCUGAUGAGUCCGAGAGGACUAAACAG,0.366
8,ACCGGAUGUGCUUUCCGGUCUGACGAGUCCGUGAGGACGAAUCAG,0.286
9,ACCGGAUGUCCUUUCUGGUCUGAUGAGUCCGUGAGGACGAAACAG,0.964
10,ACCGGAUGUGCUUCCCGGUCUGAUGAGACCGUGAGGACGAAACAG,0.501
11,ACCGGAUGUGCUUUCCGGUUUGAUGCGUCCGUGAGGACGAAACAG,0.321
12,ACCGGAUGUGCUUUCCGGUCUGAUGAGUGCCUGAGGACGAAACAG,0.74
13,ACCGGAUGUGCUUUCCGGUCUGAUGAGUCCGUGAGGACGAUAAAG,0.321
14,ACCGGAUGUGCUUUCCGGUCUGAAGAGUCCGUGAGGCCGAAACAG,1.03
15,ACCGGAAGUGCUUUCCGGUCUGAUGAGUCCGUGAGGACGAAUCAG,0.257
16,ACCGGAUGUGCUUUCCGGUCUGAUGAGUCCGUGACAACGAAACAG,0.504
17,ACCGGAUCUGCUUUCCGGUCUGAUGAGUCCGUGACGACGAAACAG,0.726
18,ACCGGGUGUGCUUUCCGGUCUGAUGAGUUCGUGAGGACGAAACAG,0.89
19,AACGGAUGGGCUUUCCGGUCUGAUGAGUCCGUGAGGACGAAACAG,0.44

row,Variant,self-cleavage
1,ACCGGAUGUGCUUUCCGGUCUGAUGAGUCCGUGAGGACUAAACCG,0.417
2,ACCAGAUGUGCUUUCCUGUCUGAUGAGUCCGUGAGGACGAAACAG,0.39
3,ACCGGAUGUGCUUUCCGGUCUGAUGAUUCCGUGAGUACGAAACAG,0.328
4,ACCGGAUGUGCUUUCCGGUAUAAUGAGUCCGUGAGGACGAAACAG,0.287
5,AGCGGAUGUGCUUUCCGGUCUGUUGAGUCCGUGAGGACGAAACAG,0.321
6,ACCGGAUGUGCUUUCCGUUCUGAUGAGUCCGUGGGGACGAAACAG,0.493
7,ACCGGAUGUGCUUUCCGGUCAGAUGAGUCCGUGAGGACCAAACAG,0.32
8,ACCGGGUGUACUUUCCGGUCUGAUGAGUCCGUGAGGACGAAACAG,0.989
9,ACUGGAUGUGCUUCCCGGUCUGAUGAGUCCGUGAGGACGAAACAG,0.669
10,ACCGGAUGUGCUUUCAGCUCUGAUGAGUCCGUGAGGACGAAACAG,0.341
11,ACCGGAUGUGCUUUCCGGUCUGAUGAAUCCUUGAGGACGAAACAG,0.923
12,ACCGGAUGUGCGUUCCGGUCUGAUGAGACCGUGAGGACGAAACAG,0.666
13,ACCGGAUGUGCUUUCCGGUCUGAUGAGUCAGUGAGGCCGAAACAG,0.428
14,ACCUGAUGUGCUUUCCGGUCUGAUGAGUCCCUGAGGACGAAACAG,0.56
15,ACCGGAUGUGCUUUCCGGUCUGAUAAGUCCAUGAGGACGAAACAG,0.347
16,ACCGGAUGUGCCUUCCGGUCUGAUGAGUCCGGGAGGACGAAACAG,0.502
17,ACCAGAUGUGCUUUCCGGUCUGAUGGGUCCGUGAGGACGAAACAG,0.35
18,ACCCGAUGUGCUUUCCGGUCUAAUGAGUCCGUGAGGACGAAACAG,0.297
19,AACGAAUGUGCUUUCCGGUCUGAUGAGUCCGUGAGGACGAAACAG,0.37

row,Variant,self-cleavage
1,ACCGGAUGUCCUUUCCGGUCUGAUGAGUCCGUGAGGACUAAACAG,0.307
2,ACCGGAUGUGCUUUCCGGUCUGGUGAGUCCGUGAGGACGACACAG,0.34
3,ACCGGAUGUGCUUUACGGUCUGAUGAGCCCGUGAGGACGAAACAG,0.425
4,ACCGGAUCUGCUUUCCGGUCUGAUGAGUCCGUGAGGCCGAAACAG,1.05
5,ACCGGAUGUGCUUUCCGGUCUGAUGACUCCGUGAAGACGAAACAG,0.443
6,ACCGGAUGUGCUUUCCGGUCUGAUGAGCCCGUGAGGAUGAAACAG,1.01
7,ACCGGAUGUGCUUACCGGUCUGAUGAGUCCGUGAGGAUGAAACAG,0.926
8,ACCGGAUGUGCUUUCCAGUCUGGUGAGUCCGUGAGGACGAAACAG,0.306
9,ACCGGAUGUGCUUUCCGGUCUGAUGAGUCCUUGAGGGCGAAACAG,0.899
10,ACCGGCUGUGCUUUCCGGUCUGAUGAGUCCAUGAGGACGAAACAG,0.778
11,ACCGGCUGUGCUUUCCGGUCUGAUGAGUCCCUGAGGACGAAACAG,0.573
12,ACCGGAUGUCCUUUCCUGUCUGAUGAGUCCGUGAGGACGAAACAG,0.932
13,ACCGGAUGUGCUUUCCGGUCUGAUGUGUCCGUGAGCACGAAACAG,0.265
14,ACCGGAUGUGCUUUCCGGUCUGAUGAGUGCGCGAGGACGAAACAG,0.708
15,ACCGGAUUUCCUUUCCGGUCUGAUGAGUCCGUGAGGACGAAACAG,1.07
16,ACCGGAUGUGCUUUCCGGUCUGAUGAGUCCGUGAGGACGAACCAC,0.451
17,ACCGGAUGUGCUUACCGGUCUGAUGAGUCCGAGAGGACGAAACAG,1.38
18,ACCGGAGGUGCUUUCCGGUCUGAUGAGUGCGUGAGGACGAAACAG,0.488
19,ACCGGAUGUACUUUCCGGUCUGAUGAGUCCGUGAGGACGAAAGAG,0.406
